B1: HDV Ribozyme (parent)
chain: GGCCGGCAUGGUCCCAGCCUCCUCGCUGGCGCCGGCUGGGCAACAUUCCGAGGGGACCGUCCCCUCGGUAAUGGCGAAUGGGACCCA

Variants of: B1
Test: self-cleavage, relative activity (ratio to wild type); higher = more cleavage; co-transcriptional

Variant | self-cleavage
G50U C85G | 0.872
A51C A77C | 0.266
A51C A78G | 0.751
G52C C86G | 0.997
G52C C62G | 0.383
A51G G73U | 0.397
A51G G73A | 0.864
A51G G73C | 0.575
A51G C84G | 0.332
A51G C84U | 0.975
G52U A71U | 0.781
G52C A83U | 0.389
G52C A83G | 0.683
G52C U60C | 0.966
G50U G67A | 0.959
G50U G67C | 0.617
A51C G76A | 1.08
A51G C85A | 0.673
A51C G82A | 0.298
A51C G82C | 0.534
A51G A77G | 1.02
G52A G74A | 0.518
G52C A87C | 0.85
G50U G68A | 0.694

Variant | self-cleavage
G50U G68C | 0.465
G52U C85G | 0.791
G52U C85U | 0.781
A51G C62A | 0.812
A51G C62G | 0.739
A51C G55C | 0.7
A51C G55U | 0.944
G52A C85U | 0.923
G52A C85A | 1.03
G52A G81A | 0.529
A51G U79G | 0.831
A51G U79A | 0.675
A51U G53C | 0.776
A51U G53U | 1.11
G50U G74U | 0.427
G52C C75G | 0.104
A51C A87U | 0.881
G52A A77C | 0.309
G52A A77G | 0.89
A51C C61A | 1.05
G52C A70C | 0.85
G52U A78C | 0.292
G52U A78U | 0.378
G52C C66U | 0.965

Variant | self-cleavage
G52C C66G | 0.672
G50U G54A | 0.85
G50U G54C | 0.768
A51C | 0.972
A51G | 0.948
A51U | 0.981
G52U A77G | 0.647
G50U G55A | 1.11
A51U C84U | 0.716
A51U C84G | 0.443
G52A A78U | 0.277
G52A A78C | 0.347
A51U A78C | 0.242
G52U A87G | 0.906
G52U A87U | 1
A51U A83U | 0.712
A51U A83G | 0.669
A51U A83C | 0.269
A51G A78G | 0.674
A51G A78C | 0.318
A51G C64A | 0.47
A51C U79G | 0.415
A51C U79A | 0.959
A51G A70U | 1.22

Variant | self-cleavage
A51G A70C | 0.974
G52A G73C | 0.337
G52A G73A | 0.602
G52U C75A | 0.148
A51U G54C | 0.982
G52C G67A | 0.62
G52C G67U | 0.753
G52A C64U | 0.992
A51G C57U | 0.85
G52U C66U | 0.737
G52U C66G | 0.472
G52U C66A | 0.618
A51G G76U | 0.942
G50U G59A | 0.852
G50U G59C | 1.14
G52C G81C | 0.242
G52C G81U | 0.579
G50U G76A | 1.05
A51G C61U | 0.889
A51C G68U | 0.782
A51G G68U | 0.831
A51C C66U | 0.974
A51C U60G | 0.95
G52C C61A | 0.857

Variant | self-cleavage
G52C C85G | 1.03
G52C C85A | 0.969
G52C C64G | 0.739
G52C C64A | 0.753
G52A C61U | 0.879
G52A C86G | 1.04
G52A C86U | 0.816
A51U A87C | 0.959
A51U A87G | 0.965
A51G G74A | 0.406
A51G G74U | 0.434
A51C C75G | 0.415
A51U C58U | 1.17
G52C G82C | 0.141
G52C G82U | 0.283
A51C U65G | 0.937
A51C U65A | 1.04
G52A G67A | 0.923
G52A G67C | 0.878
G52A U79C | 0.514
A51U C62U | 1.09
A51U C62G | 0.131
G52U G55U | 0.822
G52U G55A | 0.731

Variant | self-cleavage
G52C C63G | 0.892
A51G U60C | 0.931
A51G U60A | 0.852
G50U G73U | 0.402
G50U C63A | 0.57
G52C G68U | 0.332
G52C A77C | 0.403
G52C A77U | 0.731
G52C A77G | 0.643
A51G A87U | 0.952
A51G G55A | 0.972
A51G G80U | 0.229
A51G G80C | 0.141
A51U C75A | 0.123
A51U C75U | 0.177
A51U C75G | 0.344
G50U U79G | 0.802
G50U U79A | 0.831
G50U G52U | 0.68
G50U G52A | 0.799
G52C C58U | 1.24
G50U C86U | 0.751
A51C A56C | 0.703
G50U C75G | 0.277

Variant | self-cleavage
G50U C75A | 0.0773
G50U C75U | 0.13
A51C U69G | 1.15
A51C U69C | 0.931
A51C U69A | 1.13
G52A | 1.02
G52C | 1.01
G52U | 0.938
G52A C66U | 0.982
G52A C66G | 0.841
G52C G53C | 0.582
A51G A83U | 0.356
A51G A83G | 0.916
A51G C58U | 0.95
A51G C58A | 0.98
G52C G73U | 0.415
G52U G53U | 0.733
G52U G53C | 0.672
A51C G81U | 0.38
A51C G81C | 0.193
A51C C63U | 1.05
G52A A83G | 0.85
G52A A83U | 0.475
G52C G74A | 0.486

Variant | self-cleavage
G52C G74C | 0.17
G52C C57A | 0.817
G52C C57G | 0.866
G52C C57U | 0.991
G52U A56C | 0.815
A51U C61U | 0.781
A51U C61G | 0.831
A51U C61A | 0.938
A51C A83U | 0.609
A51C A83G | 0.673
G52A A71U | 0.923
G52A A71G | 0.845
A51G A56G | 1.08
A51U G81U | 0.282
G52U G54C | 0.684
A51U C86A | 0.848
A51U C86G | 1.21
A51U C86U | 0.831
G52C G55A | 0.901
G52C G55U | 0.966
G52A G59C | 1.05
G52A G59U | 0.865
G52A G59A | 1.07
G50U G82C | 0.435

Variant | self-cleavage
G52U C62U | 0.754
A51G G52C | 0.789
A51U G52U | 0.889
A51U G52C | 0.849
G52C U72A | 0.872
G52C U72G | 0.723
G52A U65C | 0.954
G52A U65G | 0.986
G50U G81A | 0.609
G50U G81C | 0.479
G50U G81U | 0.341
G52A G53C | 0.743
A51U U69G | 0.98
A51U G55U | 0.989
G52U C58U | 0.898
A51G C66G | 0.989
A51G C66A | 0.889
A51G C66U | 0.89
G52A C75G | 0.227
G52A C75U | 0.147
G52A C75A | 0.166
A51C C64A | 0.764
G50U C66U | 1.09
G50U C66A | 0.901

Variant | self-cleavage
G52U C86U | 1.02
G52U C86A | 0.926
A51C C85A | 0.755
A51C C85G | 0.831
A51C C85U | 0.898
G52C G54A | 0.541
A51U G80U | 0.257
G50U U72C | 0.487
G50U U72A | 0.554
G50U U72G | 0.415
G52C U79C | 0.582
G52C U79A | 0.906
A51U C57U | 0.801
A51U C57A | 0.814
G50U C64U | 0.901
G50U C64A | 0.468
A51U A71U | 1.01
A51C C58G | 1.02
A51C C58A | 0.779
A51C C58U | 0.95
A51U U79G | 0.534
G52U C84G | 0.573
G52U C84A | 0.904
A51G G67C | 0.864

Variant | self-cleavage
A51G G67A | 0.831
G52A G80U | 0.262
G52A G80C | 0.272
G52A G80A | 0.386
A51G A71U | 0.629
A51G A71C | 0.458
G52U C61U | 0.936
G52U C61A | 1.02
A51C A71U | 0.892
A51C A71G | 0.918
A51G G81A | 0.285
A51U G68U | 0.9
A51U G68A | 0.787
A51U G68C | 0.554
G52C A71G | 0.884
G52C A71C | 0.332
G52C A71U | 0.831
A51G C86A | 1.16
A51G C75G | 0.128
A51G C75A | 0.17
G52C U69G | 0.914
G52C U69A | 1.21
G52C G76C | 1.03
G52C G76U | 1.03

Variant | self-cleavage
G52U C57U | 1.24
G52U C57G | 0.95
A51U A77C | 0.453
A51U A77U | 0.815
G52C G59U | 0.962
G52C G59A | 1.02
G52C G59C | 0.987
A51C C57U | 0.969
A51U C64A | 0.845
A51U C64U | 0.927
A51U C64G | 0.578
G52A U72C | 0.591
G52A U72A | 0.423
G52A U72G | 0.749
A51U U65C | 1.04
A51U U65A | 0.966
A51C G80A | 0.345
A51G G54A | 0.831
A51G G54U | 1.07
A51G G54C | 1.37
A51U C63A | 0.911
G50U U69A | 0.872
G50U U69G | 0.95
G52U C63U | 1

Variant | self-cleavage
A51U C66G | 0.816
A51G C63U | 0.969
A51G C63G | 0.538
G52C C84G | 0.978
G52C G80A | 0.475
G52C G80U | 0.299
A51G U69A | 1.11
A51G U69G | 1.09
A51G U69C | 0.9
A51U A56C | 0.851
G52C A78C | 0.0723
A51U G82C | 0.282
A51G G53U | 0.795
A51G G53C | 0.665
G50U C62A | 0.602
G50U C62G | 0.344
G50U C62U | 0.95
G52U C64A | 0.911
G52A A56G | 0.801
A51C G52C | 0.332
A51C G52A | 1.04
A51C G52U | 0.601
G50U U60A | 0.87
G50U U60C | 0.938

Variant | self-cleavage
A51C G54U | 0.659
A51C G54A | 0.716
A51C C62U | 1.08
A51G G59A | 0.787
G52A A87C | 1.13
G52A A87U | 0.897
G52A A70C | 0.791
G52A A70U | 0.858
A51C G73U | 0.567
A51C G73C | 0.293
A51C G74A | 0.479
A51C G74C | 0.196
A51C G74U | 0.383
G52A C63U | 0.969
G52A C63G | 0.415
G52A U69C | 1.21
A51C G67U | 0.939
A51C G67A | 0.77
A51U G73A | 0.607
A51U G73U | 0.504
A51U G73C | 0.415
G52A G55C | 0.923

Reference: the RNAGym collection of RNA variant scans (doi:10.7554/elife.80360)
